The source of these data is the nanobody polyreactivity screen of Harvey et al. (2022).

The data set is described as follows: yeast display, Sf9 membrane polyspecificity reagent, FACS + sequencing; frameworks hold sequencing errors. The method in brief:
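Sorting gates, low and high (top ~1%), were placed on anti-HA fluorescence to track expression and on streptavidin fluorescence to track reagent binding. A clone's polyreactivity label is taken from the gate it came out of. The reagent was 10% biotinylated, detergent-solubilized Sf9 membrane, applied for 1 hour at 4 °C to galactose-induced yeast display cells.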
In the case of “QVQLVDSGGGLVQAGGSLRLSCAASGSIFKYYAMGWSRQAPGKERELVAAISWSGDSTYYADSVKGRFTISRDNAKNTVYLQMNSLKPEDTAVYYCAAVYPYQVPDYDYWGQGSQVTVSS”, the “polyreactivity (PSR sort gate)” value was “low polyreactivity”.

As to “QVQLVDSGGGLVQAGGSLRLSCAASGRTLYLYAMGWYRQAPGKKRELVAGISWSGTSTYYADSVKGRFTISRDNSKNTVYLQMNSLKPEDTAFYYCAADRLYVRYGYWGQGTQVTVSS”, the “polyreactivity (PSR sort gate)” value is “low polyreactivity”.

In the case of “QVQLQESGGGLVQEGGSLRLSCAASGNISPPADMGWYRPAPGKERELVASIGTGGTTNYADSVKGRFTISRDNAKNTVYLQMNSLKPDDTAVYYCAAVRYEYNPYDYWGQGTQVTVSS”, the “polyreactivity (PSR sort gate)” value is “low polyreactivity”.

Regarding “HVQLVESGGGLVQAGGRLRLSCAASGGTFWHYAMGWYRKAPGKERELFAAIRWRGVRTYYADSVKGRFTISRDNAKNTVYLQMNSLKPEDTAVYYCASTTWRSGRYNYWGQGTQVTVSS”, the “polyreactivity (PSR sort gate)” value is “high polyreactivity”.

In the case of “QVQLVESGGGLVQAGGSLRLSCAASGLTFRYYTMGWYRQAPGNERELVASSTSGGITYYADSVKGRFTISRDNAKNTVYLQMNSLKPEDPAVYYCAKGSYRTTYGALGVKYGYWGQGTQVTVSS”, the “polyreactivity (PSR sort gate)” value is “high polyreactivity”.

With “QVQHVESGGGIVQAGGSLRLSCAASGRTYAINAMGSYRQAPGKEMELLASITTRDSSTYYADSVKGRFTISRDNAKNTVYLQMKSLIPDDTAVYYCAKVKLVTYLYRLFVYGSYYWGLGTQVTVSS”, the “polyreactivity (PSR sort gate)” value is “low polyreactivity”.

Take “QVQLVESGGGLVQAGGSLRLSCAASGFTFHYYAMGWYRPAPGKERELVAAISRGGGNTYYADSVKGRFTISRDNAKNTVYLQMNSLKPEDTAVYYCAADSKYRFSHGLDYWGQGTQVTVSS”: the “polyreactivity (PSR sort gate)” value is “high polyreactivity”.

Regarding “QVQLVESGGGLVQAGGSLRLSCAASGSIFFTNAKGLSRQAPGKERELVAAITSSGTRTYYADSVKGRFTISRDNAKNTVYLQKNSLKPEDTAVYYCAVEVQYKYDYSHTYRYYYWGQGSQVTVSS”, the “polyreactivity (PSR sort gate)” value is recorded as “high polyreactivity”.

As for “QGQLEESGGGLVQAGGSLRLSCAASGSLFPSYVMGWYRQAPGKERELVAAIRTSGDRTYYADSVKGRFTNSRDNAKNTVYLQMNCLKPEDTAVYYCAAPYGHKSPRMYYWGQGTQVTVSS”, the “polyreactivity (PSR sort gate)” value was “high polyreactivity”.

On to “QVQLVESGGGLVQAGGSLRLSCAASGRTFYYYGMGWYRQAPGKERELVASITNGGNTNYADSVKGRFTISRDNAKYTVYLQMNSLKPEDTAVYYCAKDVPYWRPVVRYDYWGQGTQVTVSS”, for which the “polyreactivity (PSR sort gate)” value was “low polyreactivity”.

Turning to “QVQLVESVGGLVQAGGSLRLSCAASGSILRRYAMGWYRRAPWKERELVAAIDGGGGTTYYADSVKGRFTISRDYAKKTVYLQMNSLKPEDNAVYYCAADASWELIAWAHYDYWGQGTQVSVSS”, the “polyreactivity (PSR sort gate)” value is “low polyreactivity”.

Regarding “QVQLVESGGGLVQAGGRLRLSCAASGFIFTEYAMGWYRQSPGKERELVAAINSGGRTKYADSVKGRFTISRDNAKNTVFLQMNSLKPEDTAVYYCAARRFPTYDYWGQGTQVTVSS”, the “polyreactivity (PSR sort gate)” value was “high polyreactivity”.

With “QVQLVESGGGLVQAGGSLRLSCAASGRIFAYYAMGWYRQAPGKERELVATIRSGGDTNYADSVKGRFTISRDNAKNTVYLQMNSLKPEDTAVYYCNALYDWWYPHEYNYWGQVTQVTVSS”, the “polyreactivity (PSR sort gate)” value is “low polyreactivity”.

In the case of “QVQLVESGGGFVQAGGSLRLSCAASGFIFWLNAMGWYRQAPGKERELVAASSIGGRTNYADSVKGRFTISRDNAKNTVYLQMNSLTPEDTAVYFCNNDYRSVYKGRGFDYWGQGTQVTVSS”, the “polyreactivity (PSR sort gate)” value was “low polyreactivity”.

On to “QVQLVESGGGLVQAGGSLRLICAASGRIFGYNAMGWYRQEPGKERELVAAISSGGSTYYADSVKGRFTISRDHAKNTVYLQMNSLKPEDTAVYYCAAEDYPPYTTEYDYWGQGTQVTVSS”, for which the “polyreactivity (PSR sort gate)” value is listed as “low polyreactivity”.

On to “QVQLVESGGGLVQAGGSLRLSCAASGFTFYTYMGWYRQAPGKERELVAAISWSGDSTYYADSVKGRFTISRDNAKNTVYLQMKSLKPEDTAVYYCAARRVFYNGYYVNVGSFYYWGQGTQVTVSS”, for which the “polyreactivity (PSR sort gate)” value is reported as “low polyreactivity”.

Consider “QVQLVESWGGLVQAGGSLRLSCAASGSTFYWYTMGWYRQAPGKERELVARISSSGSTNYADSVKGRFTISRDNAKNTVYLQMKSLKPEDTAVYYCKKDWIYRGYDYWGQGTQVTVSS”, for which the “polyreactivity (PSR sort gate)” value is recorded as “high polyreactivity”.

On to “QVQLEESGGGLVQAGGSLRLSCAASGSIFKFYAMGWYRQAPGKEREFVAAIRQSGGRTYYADSVKGRFTISRDNAKNTVYLPMNSLKPEDTAVYYCAADGYYWEYYYWGQGTQVTVSS”, for which the “polyreactivity (PSR sort gate)” value is “high polyreactivity”.

As for “QVQLVESGGGLVQAGGSLRLSCAASGITFDYYGMGWYRQAPGKEGELVASITSGGSTNYADSVNGRFTISRDNAKNTVYLQMNSLKPEDTAVYYCNAEFWEVSPDRRDYDYWGQGTQVTVSS”, the “polyreactivity (PSR sort gate)” value was “low polyreactivity”.

Regarding “QVQLVESGGGLVQAGGSLRLSCAASGRIFLWYAMGWYRQAPGKERELVASITRSGVTTYYADSVKGRFTISRDNAKNTVYLQMKSLKPEDTAVYYCNKDFRGDAIKLDVNYWGQGTQVTVSS”, the “polyreactivity (PSR sort gate)” value is recorded as “low polyreactivity”.

As to “QVQLVESGGGLVQAGGSLRLSCAASGSTFTKYSMGWYRQAPGKERELVAAITGSGGRTYYADSEKGRFTISRDNAKNTVYLQMNSLKPEDTAVYYCAAEKAAGWYSGYDYWGQGTQVTVSS”, the “polyreactivity (PSR sort gate)” value is listed as “high polyreactivity”.

On to “QVQLVESGGGLVQAGGSLRLSCAASGRTFYRYAMGWYRQAPGKEREFVARITTSGGSTYYADSVKGRFTISRDNAKNTVYLQMNSLKPDDTAVYYCNASGVTYAFLRFDYWGQGTQVTVSS”, for which the “polyreactivity (PSR sort gate)” value is “high polyreactivity”.

As to “QVQIVESRGGLVQAGVSLRLSCAASGRIFAKNVMGWYRQAPGKDRELVAAISRSGGSTYYADSVKGRFTISRDNAKNTVYLQMNSLKPEDTAVYYCAATPAYGRRWSRYGYWGQGTQVNVSS”, the “polyreactivity (PSR sort gate)” value was “high polyreactivity”.

For “QVQLVESGGGLVQAGGSLRLSCAASGFIFRYYAMGWYRQAPGKEREMVAAISRSGGSTYYADSVKGRFTISRDNANNTVYLQMKSLKPEDTAVYYCAALQSRSWYQFNYWGQGTQVTVSS”, the “polyreactivity (PSR sort gate)” value was “high polyreactivity”.

For “QVQLVESGGGLVQAGGSLRLSCAASGIFDYYAMGWYRQAPGKERELVAAINSSGGSTYYADSVKGRFTISRDNAKNTVYLQMNSLKPEDTAVYYCAAGRYAYLFNYWGQGTQVTVSS”, the “polyreactivity (PSR sort gate)” value was “high polyreactivity”.

On to “QDQLVESGGGLVQAGGSLRLSCAASGLTLKENVMGWYRQAPGKERELFAAISTGASTYYADSVKGRFTISRDNAKNTVYLQMNSLKPEDTAVYYCAKRVTPWYGYWGQGTQVTVSS”, for which the “polyreactivity (PSR sort gate)” value is reported as “high polyreactivity”.

As for “QVQLVESGGGLVQAGGSLRLSCAASGRIFGVYAMGWYRQAPGKERELGAALSEGGGSTNYADSVKGRFTISRDNAKNTVYLQMNSLKPEDTAVDYCAATSRTGVRRYYSWGQGTQVTVSS”, the “polyreactivity (PSR sort gate)” value was “low polyreactivity”.

For “QLQLVESGGGLVQAGGSLRLSCAASGFTFRYYAMGWYRQAPGKERELVAAITRSGTTSYADSVKGRFTISRDNAKNTVYLQMNSLKPEDTAVYYCNTRVTGNRLGYYYWGQGTQVTVSS”, the “polyreactivity (PSR sort gate)” value is on record as “high polyreactivity”.

Consider “QVQIVESGGGLVQAGGSLRLSCAASGRIFYAYAMGWYRQAPGKERELVAAISSGGSTKYADSVKGRFTISRDNAKNTVYLQMNSLKPEDTAVYYCNADATALSFGTLFDYWGQGTQVTVSS”, for which the “polyreactivity (PSR sort gate)” value is on record as “low polyreactivity”.

On to “QVQLVESGGGLVQAGGSLRLSCAASGRIFGYNAMGWSRQAPGKERELFAAITTSGGSTYYADSVKGRFTISRDNAKNTVYLQMNSLKPEDTAVYYCARDSLQVFYPYASDDYWGQGTQVTVSS”, for which the “polyreactivity (PSR sort gate)” value is listed as “low polyreactivity”.

For “QFQLVESGGGLVQAGGSLRLSCAASGCTLQRNNRGWYRQAPGKDSEFVARISRRACSTYYADSVKGRITISRDNAKNTVYLQMNSLKPEDTAVYYCSTEDRGLTTRYPYDYWGQGTQVTVSS”, the “polyreactivity (PSR sort gate)” value is reported as “high polyreactivity”.

With “QVQLVESGGGLVQAGGSLRLSCAASGSIFGDNAMGWYRKAPGKERELVAGISSSGGRTYYADSVKGRFTISRDNAKNTVYLQMNSLKPEVTAVYYCAKEPGWGRRSTTAYDYCGQGTQVTVSS”, the “polyreactivity (PSR sort gate)” value was “low polyreactivity”.

For the sequence “QVQLVESGGGLVQAGGSLRLSCAASGFIFFSNAMGWYRQAPGKEMELVAAISRIGVSTYYADSLKGRFTISRDNAKNTVYLQMKSLKPEYTAVYYCNKSNPDYDGLAIHAFDYWGQGTQVTVSS”, the “polyreactivity (PSR sort gate)” value is reported as “low polyreactivity”.

Regarding “QVQLVESGGGLVQAGGSLRLSCAASGRIFVLYTMGWYRQAPGKERELVAAISRRGGNTNYADSVKGRFTISRDNAKNTVYLQMNSLKPEDTAVYFCNARWTGARYYYYPMDYWGQGTQVTVSS”, the “polyreactivity (PSR sort gate)” value is “high polyreactivity”.

Take “QVQLVESGGGLVQAGGSLRLSCAASGRTYYHYTMGWYRQAPGKERDLVAAITSGGSTYYADSVKGRFTMSRDNAKITVYVQMNSLKPEDTAVYYCARVRPLYHYSRYDYWGQGTQVTVSS”: the “polyreactivity (PSR sort gate)” value is reported as “high polyreactivity”.

For “QVQLVESGGGLVQAGGSLRLSSAASGFIFPAYAMGWYRQAPGKDRELVAAISKSGGRTYYADSVKGRFTISRDNAKNTVYLQMNSLKPEDTAVYYCNKDRYPREQYTWKYAWGYDYWGQGTQVTVSS”, the “polyreactivity (PSR sort gate)” value was “high polyreactivity”.

Regarding “QVQLVESGGGLVQAGGSLRLSCAASGRIFVGYAIGWYRQAPGKERELVAAINRSGSSTYYADSVKGRYTISRDNAKNTFYLQMNSLKPEDTAVYYCNARSGNRYGPRYDYWGQGTQVTVSS”, the “polyreactivity (PSR sort gate)” value is on record as “high polyreactivity”.

With “QVQLVESGGGLVQAGGRLRLSCAASGRIFVYYAMGWYRQAPGQERELVAAITYSVDSTYYADSVKGRFTISRDNAKNTVYLQMNSLKPEDTAVYYCATDVDWAYGYQYEYWGQGTQVTVSS”, the “polyreactivity (PSR sort gate)” value was “low polyreactivity”.

Turning to “QVQLVESGGGLVQAGGSLRLSCAASGSIFTFYAMGWYRQAPGKERELVATITWLGGSTYADAVKGRFTISRDNAKNTVYLQMNSLKPEDTAVYYCNADYRSYWYKLDYWGQGTQVTVSS”, the “polyreactivity (PSR sort gate)” value is “high polyreactivity”.

For the sequence “QVQLVESGGGLVQAGGSLRLSCAASGIIFYFYAMGWYRQAPGKERELVAAISRGGSTKYADSVKGRFTISRDNAKNTVYLQMNSLKPEDTAVYYCAATRRRPSEYYYWGPGTQVTVSS”, the “polyreactivity (PSR sort gate)” value was “high polyreactivity”.

Regarding “QVQLVESGGGLVQAGGSLRLSCAASGSTFVRYAMGWYRQAPGKERELVASISSSGSTYYADSVKGRFTISRDNAKNTVYLQMNSLKPEDTAVYYCAKQYGGRYGYWGQGTQVTVSS”, the “polyreactivity (PSR sort gate)” value was “low polyreactivity”.
